The record followed here is PMC4493910, “Cryo-EM structure of the bacteriophage T4 portal protein assembly at near-atomic resolution” (Nature Communications, 2015).

Data set [1] deals with bacteriophage T4 major capsid protein gp23 (bacteriophage T4). As to the kind of experiment: cryo-EM structure; purified emptied prolate heads of a gp13 amber mutant in 50 mM Tris pH 7.5, 1 mM MgCl2, 100 mM NaCl; fivefold symmetry, 10 Å; gp20 structure and a gp23 model fitted into the map.
The target in data set [2] is bacteriophage T4 portal protein gp20, construct gp20-N74 (residues 74–524) (bacteriophage T4) (UniProt P13334). As to the kind of experiment: cryo-EM 2D classification of particles; oligomeric states counted in cryo-EM data of purified portals; gp20-N74 after a single gel filtration (narrow 500 μl fraction). A general note: SEC sorts molecules by how far they enter the pores of the column.

Data set [3] shares this target. The data set is described as follows: cryo-EM structure; single particles of gp20-N74 after two gel filtrations, 1 mg/ml in 20 mM Tris-HCl pH 7.8, 400 mM NaCl, 5 mM EDTA, 0.3% octyl-β-glucoside; 12-fold symmetry imposed, 3.6 Å.
Data set [4] deals with gp20 mutant in which the tunnel loop (residues 377–388) had been deleted (bacteriophage T4). As to the kind of experiment: cryo-EM 2D classification of particles; oligomeric states counted in cryo-EM data of purified portals; gp20-N74 after a single gel filtration (narrow 500 μl fraction).
Data set [5] concerns the molecule itself. The data set is described as follows: cryo-EM structure; purified emptied prolate heads of a gp13 amber mutant in 50 mM Tris pH 7.5, 1 mM MgCl2, 100 mM NaCl; fivefold symmetry, 10 Å; gp20 structure and a gp23 model fitted into the map.

Consider “bacteriophage T4 major capsid protein gp23 (natural protein)”, for which, in data set [1], the stoichiometry N is 6.

In data set [2], “bacteriophage T4 portal protein gp20, construct gp20-N74 (residues 74–524) (from UniProt P13334 74-524) (domain or fragment)” came in with a percent of particles that are 11-mers of 0.1%, a percent of particles that are 12-mers of 90% and a percent of particles that are 13-mers of 9.9%. In data set [3], the percent of particles that are 12-mers came to 95%, the percent of particles that are 13-mers was 5% and the stoichiometry N was 12.

For the molecule “gp20 mutant in which the tunnel loop (residues 377–388) had been deleted (domain or fragment)”, in data set [4], the percent of particles that are 11-mers is 28% and the percent of particles that are 13-mers worked out at 4%.

B1: bacteriophage T4 vertex protein gp24 (natural protein, UniProt P19896 11-427, looked up)
chain: STTTNSNSIGRPNLVALTRATTKLIYSDIVATQRTNQPVAAFYGIKYLNPDNEFTFKTGATYAGEAGYVDREQITELTEESKLTLNKGDLFKYNNIVYKVLEDTPFATIEESDLELALQIAIVLLKVRLFSDAASTSKFESSDSEIADARFQINKWQTAVKSRKLKTGITVELAQDLEANGFDAPNFLEDLLATEMADEINKDILQSLITVSKRYKVTGITDSGFIDLSYASAPEAGRSLYRMVCEMVSHIQKESTYTATFCVASARAAAILAASGWLKHKPEDDKYLSQNAYGFLANGLPLYCDTNSPLDYVIVGVVENIGEKEIVGSIFYAPYTEGLDLDDPEHVGAFKVVVDPESLQPSIGLLVRYALSANPYTVAKDEKEARIIDGGDMDKMAGRSDLSVLLGVKLPKIIIDE
notes: capsid vertex protein gp24 of bacteriophage T4, as present in fully expanded heads; source: emptied prolate heads of a T4 gp13 amber mutant, purified
As for B1, in data set [5], the “stoichiometry N” value was 5.

For orientation: stoichiometry N means a count of units in the complex or per binding partner.
